According to US20090318342A1, “Compounds” (IMPERIAL INNOVATIONS LIMITED, priority 2005, published 2009):
Values belong to the molecule of their own block, whether it stands above or below them.

Columns and labels:
[1] = test system: monocyte-derived macrophages (MDM); experiment: TNFα release by monocyte-derived macrophages (ELISA); type: cell-based, human; conditions: for EC50: 10 ng/ml LPS, read-out: EC50 for inhibition of LPS stimulated TNFα release by MDM; for Effect on basal TNFα release by MDM: no LPS
Description: FIG. 9. The effect of TIMP-3 mutants on TNFα release by monocyte-derived-macrophages (MDM). […] Data is normalised to % LPS stimulation.
To address the efficacy of TMP-3 mutants on MDM, MDM from a healthy subject were cultured in the laboratory and stimulated with LPS. The effect of TIMP-3 mutants on MMP-9 activity and TNFα was measured.
This method was adapted from Dransfield et al., [7] and performed under sterile conditions. Blood was collected into EDTA (2% W/v). Dextran solution (6% w/v) was added to the whole blood in volumes of 10 ml per 20 ml blood and the final volume adjusted to 50 ml in Dulbecco's PBS. The samples were allowed to sediment at room temperature for 45 min. After sedimentation, the upper leukocyte rich layer was centrifuged at 400×g for 10 min, 4° C. and the supernatant discarded. The pellets containing the cells were resuspended in Dulbecco's PBS and centrifuged for a second time as before.
The gradient consisted of three separate concentrations of Percoll™. A ‘100% v/v’ Percoll™ solution was prepared from 90% v/v Percoll™ containing 10% v/v 10×PBS. The gradient was then prepared as follows: 4 ml 81% v/v Percoll was added to a 15 ml Falcon tube. This was overlaid by 4 ml 70% v/v Percoll. The cell pellet was resuspended in 3 ml of 55% v/v Percoll™ and then overlaid onto the pre-prepared gradient. The cells were centrifuged at 750×g for 20 min at 4° C. The peripheral blood mononuclear cells (PBMCs) were harvested from the 55%/70% interface (top layer) and the polymorphonuclear (PMN) cells remained at the 70%/81% interface (bottom layer). PBMCs were washed twice by centrifugation in sterile PBS.
PBMCs were washed in serum-containing separation buffer (sterile PBS, 0.5% w/v bovine serum albumin (BSA), 2 mM EDTA. The cells were diluted 1:100 in Kimura stain and counted using a haemocytometer. The cell pellet was resuspended with the following ratio of reagents from the monocyte isolation kit. 60 μl separation buffer, 20 μl Fc receptor (FcR) blocking reagent and 20 μl Hapten Conjugated Antibody cocktail were added to 10^7 cells and incubated at 6-12° C. for 5 min. The cells were washed twice (5 min, 4° C., 250×g) in separation buffer in a volume 10-20 times higher than the labelling volume. The cell pellet was resuspended in: 60 μl separation buffer, 20 μl FcR blocking reagent, 20 μl MACS anti-hapten microbeads and 5 μl CD15 microbeads (to remove any contaminating neutrophils) per 10^7 cells and incubated at 6-12° C. for 15 min. The cells were washed (5 min, 4° C., 250×g) and resuspended in 500 μl separation buffer. The magnetic column was prepared by washing with 3 ml separation buffer. […]
TNFα was measured using a commercially available ELISA kit and MMP-9 was measured using a Fluorokine kit.

THP-1 cells = experiment: Inhibition of TNF-α shedding from THP-1 cells (ELISA); type: cell-based, human; conditions: 100 ng/ml PMA, 6 h, 50 to 500 nM
Description: FIG. 3. Effects of mutations in N-TIMP-3 on inhibition of cellular shedding of TNF-α. THP-1 cells (2.5×10^6/ml) growing in serum-free RPMI-1640 medium were stimulated with 100 ng/ml PMA for 20 min before adding various concentrations of N-TIMP-3 (wild-type and mutants). Cells were allowed to grow for another 6 hr and conditioned media were collected for the ELISA assays.
Inhibition of TNF-α shedding from THP-1 cells—All TIMP solutions were dialyzed against 20 mM Tris-HCl (pH 7.0), 150 mM NaCl and 20% glycerol before use. Human monocyte THP-1 cells cultured in RPMI-1640 medium supplemented with 5% fetal calf serum were harvested, extensively washed and reseeded into serum-free medium at 2.5×10^6 cells/ml. […] The amount of soluble TNF-α released into the medium was measured using sandwich enzyme-linked immunosorbent assay, as described by Engelberts et al. (30) with modifications. The released TNF-α was absorbed to microtiter plates coated with mouse monoclonal anti-human TNF-α antibody BD551220 (1:200 dilution), and the bound TNF-α was detected using biotinylated mouse monoclonal anti-human TNF-α: antibody BD554511 (1:500 dilution) and streptavidin conjugated with horse radish peroxidase, and 3,3′,5,5′-tetramethylbenzidine as peroxidase substrate (KPL, Guildford, UK). The plates were read at 450 nm with an ELX808 plate reader (BIO-TEK Instruments Inc). […]

EC50 [1]: ~180 nM
B1: N-TIMP-3: N-terminal inhibitory domain of TIMP-3 (residues 1 to 121), C-terminally His-tagged, wild-type (protein)
chain: CTCSPSHPQDAFCNSDIVIRAKVVGKKLVKEGPFGTLVYTIKQMKMYRGFTKMPHVQYIHTEASESLCGLKLEVNKYQYLLTGRVYDGKMYTGLCNFVERWDQLTLSQRKGLNYRYHLGCN
Effect on basal TNFα release by MDM [1]: little effect
Inhibition of PMA-stimulated release of TNF-α (THP-1 cells): effectively inhibited

B2: -1A: N-TIMP-3 mutant with the addition of an N-terminal alanine extension (-1A) (protein)
chain: ACTCSPSHPQDAFCNSDIVIRAKVVGKKLVKEGPFGTLVYTIKQMKMYRGFTKMPHVQYIHTEASESLCGLKLEVNKYQYLLTGRVYDGKMYTGLCNFVERWDQLTLSQRKGLNYRYHLGCN
Inhibition of PMA-stimulated release of TNF-α (THP-1 cells): only slightly reduced inhibitory activity

EC50 [1]: ~180 nM
B3: (-2A)N-TIMP-3: N-TIMP-3 mutant with two alanine residues on the N-terminal side of Cysteine1 of the TIMP-3 sequence (protein)
chain: AACTCSPSHPQDAFCNSDIVIRAKVVGKKLVKEGPFGTLVYTIKQMKMYRGFTKMPHVQYIHTEASESLCGLKLEVNKYQYLLTGRVYDGKMYTGLCNFVERWDQLTLSQRKGLNYRYHLGCN
Effect on basal TNFα release by MDM [1]: little effect
